T1: GST-IRP2 (Homo sapiens, UniProt P48200 1-963)
T1 sequence: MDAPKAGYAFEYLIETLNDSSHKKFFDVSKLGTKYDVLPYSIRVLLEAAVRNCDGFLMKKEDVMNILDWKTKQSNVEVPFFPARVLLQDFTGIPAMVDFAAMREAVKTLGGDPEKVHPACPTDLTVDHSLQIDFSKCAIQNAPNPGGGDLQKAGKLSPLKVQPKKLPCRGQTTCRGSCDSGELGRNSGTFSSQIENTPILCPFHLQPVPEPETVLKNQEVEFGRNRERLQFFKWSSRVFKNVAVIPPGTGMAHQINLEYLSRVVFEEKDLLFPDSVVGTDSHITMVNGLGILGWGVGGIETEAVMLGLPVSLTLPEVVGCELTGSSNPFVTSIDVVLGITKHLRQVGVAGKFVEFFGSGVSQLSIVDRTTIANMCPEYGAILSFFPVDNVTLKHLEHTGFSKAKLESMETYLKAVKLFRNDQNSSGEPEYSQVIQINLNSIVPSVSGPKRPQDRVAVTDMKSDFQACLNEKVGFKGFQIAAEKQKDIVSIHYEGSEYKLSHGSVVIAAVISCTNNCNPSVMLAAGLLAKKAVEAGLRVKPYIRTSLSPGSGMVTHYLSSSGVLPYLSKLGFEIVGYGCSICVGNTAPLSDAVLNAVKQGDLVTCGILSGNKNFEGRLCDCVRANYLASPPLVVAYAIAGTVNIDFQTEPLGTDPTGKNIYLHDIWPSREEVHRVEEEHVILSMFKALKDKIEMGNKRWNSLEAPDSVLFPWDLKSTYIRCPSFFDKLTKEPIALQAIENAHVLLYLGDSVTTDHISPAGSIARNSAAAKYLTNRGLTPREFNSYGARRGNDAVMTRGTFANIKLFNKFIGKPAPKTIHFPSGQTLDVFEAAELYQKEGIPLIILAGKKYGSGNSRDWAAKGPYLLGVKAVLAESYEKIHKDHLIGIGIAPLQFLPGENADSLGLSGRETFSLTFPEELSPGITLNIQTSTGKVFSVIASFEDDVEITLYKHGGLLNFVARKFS

T2: GST-IRP1 (Homo sapiens, UniProt P21399 1-889)
T2 sequence: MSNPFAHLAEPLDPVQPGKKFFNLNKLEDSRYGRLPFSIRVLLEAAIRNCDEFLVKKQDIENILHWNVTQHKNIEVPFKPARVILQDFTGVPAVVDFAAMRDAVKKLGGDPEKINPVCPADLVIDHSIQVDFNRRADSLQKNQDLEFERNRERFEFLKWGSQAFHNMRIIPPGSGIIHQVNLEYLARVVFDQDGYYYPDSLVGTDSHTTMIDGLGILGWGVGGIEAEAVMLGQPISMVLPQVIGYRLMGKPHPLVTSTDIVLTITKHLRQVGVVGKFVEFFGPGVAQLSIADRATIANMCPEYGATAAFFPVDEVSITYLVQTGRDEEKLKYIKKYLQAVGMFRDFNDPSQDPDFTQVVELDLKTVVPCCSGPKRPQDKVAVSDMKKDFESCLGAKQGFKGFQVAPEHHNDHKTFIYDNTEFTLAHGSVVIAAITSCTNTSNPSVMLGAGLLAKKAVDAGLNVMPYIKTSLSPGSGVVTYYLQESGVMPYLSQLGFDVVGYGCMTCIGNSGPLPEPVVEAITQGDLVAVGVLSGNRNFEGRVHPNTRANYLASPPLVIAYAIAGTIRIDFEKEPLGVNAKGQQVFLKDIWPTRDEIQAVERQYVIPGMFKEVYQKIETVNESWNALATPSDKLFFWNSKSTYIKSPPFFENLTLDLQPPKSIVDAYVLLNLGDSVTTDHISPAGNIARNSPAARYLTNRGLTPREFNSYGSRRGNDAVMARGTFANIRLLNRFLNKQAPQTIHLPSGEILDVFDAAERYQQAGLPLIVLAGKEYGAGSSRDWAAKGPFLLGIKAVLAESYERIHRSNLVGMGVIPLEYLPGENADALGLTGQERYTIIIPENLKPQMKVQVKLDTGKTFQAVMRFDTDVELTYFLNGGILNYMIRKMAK


Tests used:
GST-IRP2 = target: T1, GST-IRP2; assay: EMSA
GST-IRP1 = target: T2, GST-IRP1; assay: EMSA

Binder	binding result (GST-IRP2)	binding result (GST-IRP1)
CCUGGUUUUUAAGGAGUGUCGCCAGAGUGCCGCGAAUGAAAAA (ssRNA) [non-IRE control RNA]	no binding	no binding
GAGGGGGCUUGCACAGAGUUGGAGCCAGAGG (structured_RNA) [CD63 5' UTR IRE]	binds	binds
